The subject of data set [1] is O=P(O)(O)OC[C@@H](O)[C@H]1O[C@@H](OP(=O)(O)O)[C@@H](O)[C@@H](O)[C@@H]1O. As to the kind of experiment: steady-state kinetics. To be noted: Mg2+; pH 7.5; 25.0 °C. The class given is biochemical, Bordetella bronchiseptica.
In data set [2] the test system is O=P(O)(O)OC[C@@H](O)[C@H]1O[C@H](OP(=O)(O)O)[C@@H](O)[C@@H](O)[C@@H]1O. As to the kind of experiment: steady-state kinetics. The class given is biochemical, Bordetella bronchiseptica. To be noted: Mg2+; pH 7.5; 25.0 °C.
Substrate in data set [3]: O=P(O)(O)OC[C@@H](O)[C@H]1O[C@@H](OP(=O)(O)O)[C@@H](O)[C@@H](O)[C@@H]1O
As to the kind of experiment: purified protein. It counts as biochemical, Escherichia coli. As to conditions: Mg2+ C([…])phosphate selectively removed; pH 7.5; 25.0 °C.

Substrate in data set [4]: O=P(O)(O)OC[C@@H](O)[C@H]1O[C@H](OP(=O)(O)O)[C@@H](O)[C@@H](O)[C@@H]1O
As to the kind of experiment: purified protein. It counts as biochemical, Escherichia coli. To be noted: Mg2+ C([…])phosphate selectively removed; pH 7.5; 25.0 °C.

Substrate in data set [5]: O=P(O)(O)OC[C@@H](O)[C@H]1O[C@@H](OP(=O)(O)O)[C@@H](O)[C@@H](O)[C@@H]1O
The data set is described as follows: steady-state kinetics. It counts as biochemical, Bacteroides thetaiotaomicron. To be noted: Mg2+; pH 7.5; 25.0 °C.

Substrate in data set [6]: O=P(O)(O)OC[C@@H](O)[C@H]1O[C@H](OP(=O)(O)O)[C@@H](O)[C@@H](O)[C@@H]1O
As to the kind of experiment: steady-state kinetics. The class given is biochemical, Bacteroides thetaiotaomicron. To be noted: Mg2+; pH 7.5; 25.0 °C.

Substrate in data set [7]: O=P(O)(O)OC[C@@H](O)[C@H]1O[C@@H](OP(=O)(O)O)[C@@H](O)[C@@H](O)[C@@H]1O
As to the kind of experiment: steady-state kinetics. It counts as biochemical, Mesorhizobium japonicum. As to conditions: Mg2+; pH 7.5; 25.0 °C.

Substrate in data set [8]: O=P(O)(O)OC[C@@H](O)[C@H]1O[C@H](OP(=O)(O)O)[C@@H](O)[C@@H](O)[C@@H]1O
The data set is described as follows: steady-state kinetics. As to conditions: Mg2+; pH 7.5; 25.0 °C. It counts as biochemical, Mesorhizobium japonicum.

As a reminder, the Km is the substrate concentration at which the rate is half of its maximum. Broadly, the kcat is the number of substrate molecules converted per active site and unit of time at saturation. A word on the kcat/Km: it is the second-order rate constant that governs catalysis at low substrate concentration.

Regarding “D-glycero-D-manno-heptose-1β,7-bisphosphate phosphatase (GmhB) (Bordetella bronchiseptica RB50)”, in data set [1], the Km was found to be 6.9 ± 0.5 µM, the kcat is 22 ± 0.5 s⁻¹ and the kcat/Km is 3.2e+06 M⁻¹ s⁻¹. Further, in data set [2], the Michaelis-Menten constant (Km) was determined as 280 ± 30 µM, the catalytic constant (kcat) came out at 5.9 ± 0.2 s⁻¹ and the kcat/Km came out at 21000 M⁻¹ s⁻¹.

B1: D-glycero-D-manno-heptose-1,7-bisphosphate phosphatase (GmhB) (Escherichia coli K-12) (protein)
chain: MAKSVPAIFLDRDGTINVDHGYVHEIDNFEFIDGVIDAMRELKKMGFALVVVTNQSGIARGKFTEAQFETLTEWMDWSLADRDVDLDGIYYCPHHPQGSVEEFRQVCDCRKPHPGMLLSARDYLHIDMAASYMVGDKLEDMQAAVAANVGTKVLVRTGKPITPEAENAADWVLNSLADLPQAIKKQQKPAQ
For the molecule B1, in data set [3], the Km stood at 5.0 ± 0.1 µM, the kcat was found to be 35.7 ± 0.2 s⁻¹ and the kcat/Km amounted to 7e+06 M⁻¹ s⁻¹. Besides, in data set [4], the Km stood at 67 ± 1 µM, the kcat came to 4.6 ± 0.1 s⁻¹ and the kcat/Km worked out at 70000 M⁻¹ s⁻¹.

B2: D-glycero-D-manno-heptose-1,7-bisphosphate phosphatase (GmhB) (Bacteroides thetaiotaomicron VPI-5482) (protein)
chain: MRLQDIDVTGFETLLLDRDGVVNRLRPDDYVKKWEEFEFLPGVLEILKAWNTHFKYIFIVTNQRGVGKEIMSEEDLKHIHERMISEVKNYGGRIDRIYYCTALTDSDINRKPGIGMFLQILRDYPDIDKAKCLMIGDSDSDIKFAKNCGIVGIKVI
B2: in data set [5], the Km stood at 86 ± 1 µM, the kcat came to 13 ± 1 s⁻¹ and the kcat/Km stood at 150000 M⁻¹ s⁻¹. Moreover, in data set [6], the Km was determined as 33 ± 1 µM, the kcat was 29 ± 1 s⁻¹ and the kcat/Km was determined as 880000 M⁻¹ s⁻¹.

B3: D-glycero-D-manno-heptose-1,7-bisphosphate phosphatase (GmhB) (Mesorhizobium japonicum MAFF 303099) (protein)
chain: MADKTGTPHPLTEPGVWIERIGGRVFPPHLPALFLDRDGTINVDTDYPSDPAEIVLRPQMLPAIATANRAGIPVVVVTNQSGIARGYFGWSAFAAVNGRVLELLREEGVFVDMVLACAYHEAGVGPLAIPDHPMRKPNPGMLVEAGKRLALDLQRSLIVGDKLADMQAGKRAGLAQGWLVDGEAAVQPGFAIRPLRDSSELGDLLAAIETLGRDNRS
Turning to B3, in data set [7], the Km worked out at 13 ± 0.2 µM, the kcat is 18 ± 0.2 s⁻¹ and the kcat/Km stood at 1.4e+06 M⁻¹ s⁻¹. In data set [8], the Km is 58 ± 1 µM, the kcat stood at 4.4 ± 0.1 s⁻¹ and the kcat/Km was found to be 76000 M⁻¹ s⁻¹.

Source of the values: article PMC2844805.
